# Experiments:
# [1] = target: wild type HNA-1b protein (Fc gamma receptor type IIIb, FcγRIIIb, CD16b) (human) (UniProt O75015); test: Luminex bead assay, protein on microbeads, negative serum, PE goat anti-human IgG; non-specific IgG background
# [2] = target: HNA-1c K138T modified protein (human) (UniProt O75015); test: as above
# [3] = target: HNA-1b L136A modified protein (human) (UniProt O75015); test: as above
# [4] = target: HNA-1c L136A modified protein (human) (UniProt O75015); test: as above
# [5] = target: HNA-1c W131F modified protein (human) (UniProt O75015); test: as above
# [6] = target: HNA-1b W131F modified protein (human) (UniProt O75015); test: as above
# [7] = target: wild type HNA-1c protein (Fc gamma receptor type IIIb, FcγRIIIb, CD16b) (human) (UniProt O75015); test: as above
# [8] = target: HNA-1b K138T modified protein (human) (UniProt O75015); test: as above
# [9] = target: HNA-1a K138T modified protein (human) (UniProt O75015); test: Luminex bead assay, protein on microbeads, neat negative serum, PE goat anti-human IgG; non-specific IgG background
# [10] = target: wild type HNA-1a protein (Fc gamma receptor type IIIb, FcγRIIIb, CD16b) (human) (UniProt O75015); test: as above
# [11] = target: HNA-1a L136A modified protein (human) (UniProt O75015); test: as above
# [12] = target: HNA-1a W131F modified protein (human) (UniProt O75015); test: as above
# [13] = target: wild type HNA-1b protein (Fc gamma receptor type IIIb, FcγRIIIb, CD16b) (human) (UniProt O75015); test: Luminex bead assay, protein on microbeads, PE goat anti-human IgG; reference, 1 by definition
# [14] = target: HNA-1c K138T modified protein (human) (UniProt O75015); test: as above
# [15] = target: HNA-1a K138T modified protein (human) (UniProt O75015); test: as above
# [16] = target: HNA-1b L136A modified protein (human) (UniProt O75015); test: as above
# [17] = target: wild type HNA-1a protein (Fc gamma receptor type IIIb, FcγRIIIb, CD16b) (human) (UniProt O75015); test: as above
# [18] = target: HNA-1c L136A modified protein (human) (UniProt O75015); test: as above
# [19] = target: Purified HNA-3a protein (CTL2) (human) (UniProt Q8IWA5); test: as above
# UniProt Q8IWA5, sequence (Q8IWA5 whole entry): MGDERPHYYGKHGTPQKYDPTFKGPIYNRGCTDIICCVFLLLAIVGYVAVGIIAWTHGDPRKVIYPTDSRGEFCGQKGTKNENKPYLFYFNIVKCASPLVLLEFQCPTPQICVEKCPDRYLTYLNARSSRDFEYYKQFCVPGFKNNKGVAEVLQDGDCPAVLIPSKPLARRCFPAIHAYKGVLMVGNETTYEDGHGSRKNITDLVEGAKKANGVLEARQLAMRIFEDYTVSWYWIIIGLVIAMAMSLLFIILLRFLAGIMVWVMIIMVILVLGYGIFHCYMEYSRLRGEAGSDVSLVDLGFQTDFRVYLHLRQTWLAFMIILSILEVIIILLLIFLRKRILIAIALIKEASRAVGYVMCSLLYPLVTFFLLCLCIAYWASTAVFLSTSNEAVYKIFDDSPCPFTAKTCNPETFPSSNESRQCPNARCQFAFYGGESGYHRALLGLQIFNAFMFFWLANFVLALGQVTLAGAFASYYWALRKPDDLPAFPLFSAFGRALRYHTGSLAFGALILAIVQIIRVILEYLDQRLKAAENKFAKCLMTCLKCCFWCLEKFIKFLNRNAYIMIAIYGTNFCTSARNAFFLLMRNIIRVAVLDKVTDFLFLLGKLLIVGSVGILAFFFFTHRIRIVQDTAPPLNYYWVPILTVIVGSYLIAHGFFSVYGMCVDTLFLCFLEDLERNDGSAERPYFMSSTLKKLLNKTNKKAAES
# [20] = target: Purified HNA-2 protein (CD177) (human) (UniProt Q8N6Q3); test: as above
# UniProt Q8N6Q3, sequence (Q8N6Q3 22-408 limits assumed): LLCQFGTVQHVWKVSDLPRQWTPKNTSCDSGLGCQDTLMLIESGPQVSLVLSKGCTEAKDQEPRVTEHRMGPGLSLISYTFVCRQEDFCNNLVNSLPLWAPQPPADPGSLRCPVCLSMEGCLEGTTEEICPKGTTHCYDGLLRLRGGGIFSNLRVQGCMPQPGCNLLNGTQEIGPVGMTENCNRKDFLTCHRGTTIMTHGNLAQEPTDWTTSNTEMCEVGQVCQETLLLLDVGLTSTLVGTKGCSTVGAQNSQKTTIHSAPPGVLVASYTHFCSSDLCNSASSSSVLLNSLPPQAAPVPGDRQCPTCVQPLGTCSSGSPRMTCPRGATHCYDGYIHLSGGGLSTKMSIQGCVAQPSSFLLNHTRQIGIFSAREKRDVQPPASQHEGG
# [21] = target: HNA-1c W131F modified protein (human) (UniProt O75015); test: as above
# [22] = target: HNA-1a L136A modified protein (human) (UniProt O75015); test: as above
# [23] = target: HNA-1b W131F modified protein (human) (UniProt O75015); test: as above
# [24] = target: wild type HNA-1c protein (Fc gamma receptor type IIIb, FcγRIIIb, CD16b) (human) (UniProt O75015); test: as above
# [25] = target: HNA-1a W131F modified protein (human) (UniProt O75015); test: as above
# [26] = target: HNA-1b K138T modified protein (human) (UniProt O75015); test: as above
# [27] = target: Purified HNA-5a protein (CD11a) (human) (UniProt P20701); test: Luminex bead assay, protein on microbeads; ratio to negative mouse IgG; 6 tests
# UniProt P20701, sequence (P20701 26-1170 limits assumed): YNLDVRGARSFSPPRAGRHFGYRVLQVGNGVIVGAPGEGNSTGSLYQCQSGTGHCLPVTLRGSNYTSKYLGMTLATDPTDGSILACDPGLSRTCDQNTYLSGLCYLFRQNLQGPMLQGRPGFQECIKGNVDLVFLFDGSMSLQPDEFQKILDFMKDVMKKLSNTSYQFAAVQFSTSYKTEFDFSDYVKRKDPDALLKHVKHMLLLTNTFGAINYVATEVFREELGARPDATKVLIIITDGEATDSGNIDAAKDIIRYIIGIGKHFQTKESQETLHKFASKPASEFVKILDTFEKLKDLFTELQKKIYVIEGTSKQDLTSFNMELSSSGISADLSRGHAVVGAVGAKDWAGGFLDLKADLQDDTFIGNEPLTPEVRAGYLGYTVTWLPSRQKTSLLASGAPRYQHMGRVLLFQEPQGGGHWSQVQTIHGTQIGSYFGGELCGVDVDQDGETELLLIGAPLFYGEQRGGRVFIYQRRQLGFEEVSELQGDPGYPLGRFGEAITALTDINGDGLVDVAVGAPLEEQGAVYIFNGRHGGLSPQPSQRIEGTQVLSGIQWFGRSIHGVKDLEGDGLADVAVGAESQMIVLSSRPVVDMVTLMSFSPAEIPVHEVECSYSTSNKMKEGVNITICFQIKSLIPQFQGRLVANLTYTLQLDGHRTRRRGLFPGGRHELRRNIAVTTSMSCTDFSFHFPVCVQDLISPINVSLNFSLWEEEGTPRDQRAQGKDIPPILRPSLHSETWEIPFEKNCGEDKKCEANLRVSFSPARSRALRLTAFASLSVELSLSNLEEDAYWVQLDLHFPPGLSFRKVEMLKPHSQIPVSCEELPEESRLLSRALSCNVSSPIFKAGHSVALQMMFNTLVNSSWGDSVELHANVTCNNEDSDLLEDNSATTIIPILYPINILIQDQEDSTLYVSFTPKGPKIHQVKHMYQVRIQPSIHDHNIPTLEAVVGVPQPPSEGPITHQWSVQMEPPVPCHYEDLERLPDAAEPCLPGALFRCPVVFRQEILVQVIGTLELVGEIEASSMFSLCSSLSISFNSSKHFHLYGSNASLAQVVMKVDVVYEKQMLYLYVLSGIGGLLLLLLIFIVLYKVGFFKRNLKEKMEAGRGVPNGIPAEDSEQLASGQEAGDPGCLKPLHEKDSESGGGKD
# [28] = target: Purified HNA-4a protein (CD11b) (human) (UniProt P11215); test: as above
# [29] = target: Purified HNA-5a protein (CD11a) (human) (UniProt P20701); test: Luminex bead assay, protein on microbeads; reference, 1 by definition
# [30] = target: Purified HNA-4a protein (CD11b) (human) (UniProt P11215); test: as above
substance,measurement,setting,value
Negative Sera (#LSNC) (antibody),Background Value (MFI),[1],1970 MFI
same,Background Value (MFI),[2],126 MFI
same,Background Value (MFI),[3],277 MFI
same,Background Value (MFI),[4],209 MFI
same,Background Value (MFI),[5],181 MFI
same,Background Value (MFI),[6],183 MFI
same,Background Value (MFI),[7],1500 MFI
same,Background Value (MFI),[8],187 MFI
same,Background Value (MFI),[9],450 MFI
same,Background Value (MFI),[10],1910 MFI
same,Background Value (MFI),[11],290 MFI
same,Background Value (MFI),[12],417 MFI
same,Fold Increased Ratio Against Negative Sera,[13],1 fold
same,Fold Increased Ratio Against Negative Sera,[14],1 fold
same,Fold Increased Ratio Against Negative Sera,[15],1 fold
same,Fold Increased Ratio Against Negative Sera,[16],1 fold
same,Fold Increased Ratio Against Negative Sera,[17],1 fold
same,Fold Increased Ratio Against Negative Sera,[18],1 fold
same,detection ratio,[19],1 fold
same,detection ratio,[20],1 fold
same,Fold Increased Ratio Against Negative Sera,[21],1 fold
same,Fold Increased Ratio Against Negative Sera,[22],1 fold
same,Fold Increased Ratio Against Negative Sera,[23],1 fold
same,Fold Increased Ratio Against Negative Sera,[24],1 fold
same,Fold Increased Ratio Against Negative Sera,[25],1 fold
same,Fold Increased Ratio Against Negative Sera,[26],1 fold
Positive mouse IgG (#ICRF44) (antibody),detection ratio,[27],3 fold
same,detection ratio,[28],594 fold
Positive mouse IgG (#TS1/18) (antibody),detection ratio,[27],5 fold
same,detection ratio,[28],543 fold
Negative mouse IgG (antibody),detection ratio,[29],1 fold
same,detection ratio,[30],1 fold

# Reference: patent publication US20170089895A1
